Experiment [1] deals with T1, Claudin 18.2 (CLDN18.2), expressed on CHOS-CLDN 18.2 / HEK293-CLDN 18.2 / HCC827-CLDN 18.2 cells (human, UniProt P56856-2 1-261).
T1 construct: whole, on cells; The species is not repeated for the CHOS-CLDN 18.2 cells; also called claudin-18A2
The experiment can be described thus: FACS, CHOS-CLDN18.2 cells, 0 µg/ml (background).
Protocol: (§1) The initial concentration of the antibody was 20 μg/ml, it was diluted at 1:4, and incubated at 4° C. for 60 min.

Experiment [2] deals with T1, Claudin 18.2 (CLDN18.2), expressed on …. The experiment can be described thus: FACS, CHOS-CLDN18.2 cells, 0.313 µg/ml.
Protocol: as §1
For experiment [3] the target is unchanged. The experiment can be described thus: FACS, CHOS-CLDN18.2 cells. For orientation: A flow cytometer gives signals particle by particle.
Protocol: as §1
Experiment [4] shares this target. The experiment can be described thus: FACS, CHOS-CLDN18.2 cells, 0.020 µg/ml.
Protocol: as §1
The target is the same in experiment [5]. The experiment can be described thus: FACS, CHOS-CLDN18.2 cells, 0.078 µg/ml.
Protocol: as §1
Experiment [6] shares this target. The experiment can be described thus: FACS, CHOS-CLDN18.2 cells, 5 µg/ml.
Protocol: as §1
Experiment [7] shares this target. The experiment can be described thus: FACS, CHOS-CLDN18.2 cells, 10 µg/ml.
Protocol: (§2) The initial concentration of the antibody was 20 μg/mkit was diluted at 1:4, and incubated at 4° C. for 60 min.
The target is the same in experiment [8]. The experiment can be described thus: FACS, CHOS-CLDN18.2 cells, 1.250 µg/ml.
Protocol: as §1
The target is the same in experiment [9]. The experiment can be described thus: FACS, MFI on CHOS-CLDN18.2 over MFI on CHOS-CLDN18.1, 10 µg/ml.
Protocol: as §2
Experiment [10] shares this target. The experiment can be described thus: FACS, CHOS-CLDN18.2 cells, 20 µg/ml.
Protocol: as §1
Experiment [11] shares this target. The experiment can be described thus: FACS, CHOS-CLDN18.2 cells, 0.005 µg/ml.
Protocol: as §1
For experiment [12] the target is unchanged. The experiment can be described thus: FACS, CHOS-CLDN18.2 cells. The source holds these as a separate data set.
Protocol: as §1
For experiment [13] the target is unchanged. The experiment can be described thus: FACS, CHOS-CLDN18.2 cells, 20 µg/ml. This is another data set of the same source.
Protocol: as §1
The target is the same in experiment [14]. The experiment can be described thus: FACS, CHOS-CLDN18.2 cells, 1.250 µg/ml. This is another data set of the same source.
Protocol: as §1
The target is the same in experiment [15]. The experiment can be described thus: FACS, CHOS-CLDN18.2 cells, 0.313 µg/ml. This is another data set of the same source.
Protocol: as §1
The target is the same in experiment [16]. The experiment can be described thus: FACS, CHOS-CLDN18.2 cells, 0.005 µg/ml. This is another data set of the same source.
Protocol: as §1
Experiment [17] has the same target. The experiment can be described thus: FACS, CHOS-CLDN18.2 cells, 0.020 µg/ml. The source holds these as a separate data set.
Protocol: as §1
The target is the same in experiment [18]. The experiment can be described thus: FACS, CHOS-CLDN18.2 cells, 0.078 µg/ml. This is another data set of the same source.
Protocol: as §1
For experiment [19] the target is unchanged. The experiment can be described thus: FACS, CHOS-CLDN18.2 cells, 0 µg/ml (background). This is another data set of the same source.
Protocol: as §1
Experiment [20] shares this target. The experiment can be described thus: FACS, CHOS-CLDN18.2 cells, 5 µg/ml. This is another data set of the same source.
Protocol: as §1

The values that follow come from patent US20230183352A1 (published 2023).

Read-outs that look alike come from different tables or passages of the source.

One may read the EC50 as the concentration at which the effect is half-maximal. High values mean lower potency in that assay, low ones higher potency in that assay.

B1: QP190191 (antibody, human IgG1, V domains shown)
VH: EVKLVESGGGLVKPGGSLKLSCAASGFTFSNYAMSWVRQTPEKRLEWVASIISGGRTYYLDSEKGRFTISRDNARNNLYLQMSSLRSEDTAMYYCTRIYYGNSFDYWGQGTTLTVSS
VL: DIVMTQSPSSQTVTAGEKVTMSCKSSQSLLNSGNQKNYLTWYQQKPGQPPKLLIYWASTRESGVPDRFTGSGSGTDFTLTISNMQAEDLAVYYCQNDYSYPFTFGSGTKLEIK
notes: Chimeric; also called 36A2; mouse-derived chimeric antibody QP190191
Regarding B1, the FACS reading in [1] was 729; in [2], 54200; in experiment [4] it was 8000; in [5], 15700; in experiment [6], 148000; in experiment [8], 114000. Moreover, the FACS reading in [10] worked out at 88700; in experiment [11] it was 2840. In experiment [3], this molecule yielded an EC50 of 0.354 µg/mL. Besides, in experiment [3], the max is 148000. Besides, in [7], the MFI was found to be 450000. The “CLDN18.2/CLDN18.1 (MFI ratio)” value in experiment [9] is 423.

B2: QP14371435 (antibody, human IgG1, kappa, V domains shown)
VH: EVQLVESGGGLVKPGGSLRLSCAASGFTFSNYAMSWVRQAPGKGLEWVASIISGGRTYYLDSEKGRFTISRDNAKNSLYLQMNSLRAEDTAVYYCTRIYYGNSFDYWGQGTLVTVSS
VL: DIVMTQSPDSLAVSLGERATISCKSSQSLLNSGNQKNYLTWYQQKPGQPPKLLIYWASTRESGVPDRFTGSGSGTDFTLTISSLQAEDVAVYYCQNDYSYPFTFGQGTKLEIKR
notes: Humanized from QP190191
Regarding B2, the FACS reading in experiment [1] was 732; in experiment [2] it was 72000; in [4] it was 10200; in experiment [5] it was 18000; in experiment [6], 197000; in experiment [8], 145000. The FACS reading was 134000 in experiment [10] and 4130 in [11]. Besides, the EC50 in [3] turned out to be 0.38 µg/mL. The same molecule gave a max in experiment [3] of 197000. In addition, in experiment [7], the MFI came out at 512000. Also, in experiment [9], the “CLDN18.2/CLDN18.1 (MFI ratio)” value was found to be 497.

B3: QP14361435 (antibody, human IgG1, kappa, V domains shown)
VH: EVQLVESGGGLVKPGGSLRLSCAASGFTFSNYAMSWVRQAPGKGLEWVSSIISGGRTYYLDSEKGRFTISRDNAKNSLYLQMNSLRAEDTAVYYCTRIYYGNSFDYWGQGTLVTVSS
VL: DIVMTQSPDSLAVSLGERATISCKSSQSLLNSGNQKNYLTWYQQKPGQPPKLLIYWASTRESGVPDRFTGSGSGTDFTLTISSLQAEDVAVYYCQNDYSYPFTFGQGTKLEIKR
notes: Humanized from QP190191
Turning to B3, the FACS reading came to 713 in [1]; 75900 in experiment [2]; 8520 in experiment [4]; 23600 in experiment [5]; 182000 in experiment [6]; 141000 in [8]. The FACS reading in experiment [10] is 183000; in experiment [11] it was 3390. The EC50 in experiment [3] turned out to be 0.466 µg/mL. The max in experiment [3] is 182000. Moreover, in experiment [7], the MFI worked out at 504000. Further, in experiment [9], the “CLDN18.2/CLDN18.1 (MFI ratio)” value is 550.

B4: QP14561454 (antibody, human IgG1, kappa, V domains shown)
VH: QVQLVQSGAEVKKPGASVKVSCKASGYTFTNYFVHWVRQAPGQGLEWMGYINPYNDDTKYNEKFKGRVTMTRDTSTSTVYMELSSLRSEDTAVYYCLSLRFFAYWGQGTLVTVSS
VL: DIVMTQSPDSLAVSLGERATISCKSSQSLLNSGNQKNYLTWYQQKPGQAPKLLIYWASTRESGVPDRFSGSGSGTDFTLTISSVQAEDVAVYFCQNDYSYPLTFGGGTKVEIKR
notes: Humanized from QP201202
The molecule B4 showed a concentration for a half-maximal effect (EC50) in [12] of 0.573 µg/mL. In experiment [12], this molecule registered a max of 146000. Besides, the FACS reading in experiment [13] turned out to be 146000; in experiment [14], 107000; in experiment [15], 44800; in experiment [16], 2470; in experiment [17], 6390; in experiment [18], 13400. In addition, the FACS reading in experiment [19] came out at 732; in experiment [20] it was 114000. This molecule also displayed an MFI in experiment [7] of 477000. Moreover, in [9], the “CLDN18.2/CLDN18.1 (MFI ratio)” value was determined as 430.

B5: QP14581453 (antibody, human IgG1, kappa, V domains shown)
VH: QVQLVQSGAEVKKPGASVKVSCKASGYTFTNYFVHWVKQAPGQGLEWIGYINPYNDDTKYNEKFKGKATLTRDTSTSTVYMELSSLRSEDTAVYYCLSLRFFAYWGQGTLVTVSS
VL: DIVMTQSPDSLAVSLGERATISCKSSQSLLNSGNQKNYLTWYQQKPGQAPKLLIYWASTRESGVPDRFSGSGSGTDFTLTISSLQAEDVAVYYCQNDYSYPLTFGGGTKVEIKR
notes: Humanized from QP201202
Regarding B5, a half-maximal response in [12] (EC50) required 0.425 µg/mL. Further, in [12], the max came out at 104000. The FACS reading is 104000 in experiment [13]; 91400 in [14]; 33300 in experiment [15]; 2420 in experiment [16]; 5920 in [17]; 13600 in experiment [18]. Further, the results for the FACS reading in experiment [19] and in experiment [20] were 732 and 83000, respectively. This molecule returned an MFI in experiment [7] of 554000. The “CLDN18.2/CLDN18.1 (MFI ratio)” value in [9] worked out at 581.
